Results as given in US20260184748A1 (University of Pennsylvania, published 2026).
Where no end group is shown, it is not given here.

Columns and labels:
Assay in all cases: cell-based or functional assay
HTR1A = biological target: T1, HTR1A (UniProt P08908 1-422)
T1 sequence (looked up): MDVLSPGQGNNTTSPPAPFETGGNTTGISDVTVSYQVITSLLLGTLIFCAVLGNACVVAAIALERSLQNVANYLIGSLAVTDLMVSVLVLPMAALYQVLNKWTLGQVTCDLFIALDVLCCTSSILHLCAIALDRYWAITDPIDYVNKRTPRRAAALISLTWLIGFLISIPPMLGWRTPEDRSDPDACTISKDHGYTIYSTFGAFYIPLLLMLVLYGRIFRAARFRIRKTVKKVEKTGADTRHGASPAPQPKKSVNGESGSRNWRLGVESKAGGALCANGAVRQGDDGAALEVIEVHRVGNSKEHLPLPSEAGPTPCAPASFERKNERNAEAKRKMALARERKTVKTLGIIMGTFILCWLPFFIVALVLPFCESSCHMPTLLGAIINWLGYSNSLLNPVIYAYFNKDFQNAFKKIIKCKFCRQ

EDNRB = biological target: T2, EDNRB (UniProt P24530 27-442)
T2 sequence (looked up): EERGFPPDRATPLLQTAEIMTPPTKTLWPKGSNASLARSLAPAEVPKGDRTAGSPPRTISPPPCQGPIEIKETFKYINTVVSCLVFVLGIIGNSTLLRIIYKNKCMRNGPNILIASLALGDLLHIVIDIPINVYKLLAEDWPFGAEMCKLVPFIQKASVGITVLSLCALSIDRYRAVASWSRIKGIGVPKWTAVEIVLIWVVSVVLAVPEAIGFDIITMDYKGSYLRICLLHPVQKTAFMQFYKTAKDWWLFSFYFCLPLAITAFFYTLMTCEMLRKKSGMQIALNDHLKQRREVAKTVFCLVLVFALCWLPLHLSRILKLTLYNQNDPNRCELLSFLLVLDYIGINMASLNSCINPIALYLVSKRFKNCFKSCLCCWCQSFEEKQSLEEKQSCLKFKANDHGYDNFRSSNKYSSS

GIPR = biological target: T3, GIPR (UniProt P48546 22-466)
T3 sequence (looked up): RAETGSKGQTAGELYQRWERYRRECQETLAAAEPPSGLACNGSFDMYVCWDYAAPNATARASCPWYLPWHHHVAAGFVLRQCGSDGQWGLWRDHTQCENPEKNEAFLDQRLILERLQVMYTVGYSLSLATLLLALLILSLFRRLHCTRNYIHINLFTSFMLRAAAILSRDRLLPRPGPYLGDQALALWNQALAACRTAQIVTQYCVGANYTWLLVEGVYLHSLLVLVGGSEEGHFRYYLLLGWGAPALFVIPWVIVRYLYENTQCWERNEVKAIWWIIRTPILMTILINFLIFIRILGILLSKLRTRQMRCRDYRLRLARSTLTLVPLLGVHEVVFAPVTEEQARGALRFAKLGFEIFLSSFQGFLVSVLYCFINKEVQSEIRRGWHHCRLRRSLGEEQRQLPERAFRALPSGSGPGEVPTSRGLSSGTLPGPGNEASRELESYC

OPRD1 = OPRD1 (UniProt P41143 1-372)
Sequence of OPRD1 (P41143 whole entry): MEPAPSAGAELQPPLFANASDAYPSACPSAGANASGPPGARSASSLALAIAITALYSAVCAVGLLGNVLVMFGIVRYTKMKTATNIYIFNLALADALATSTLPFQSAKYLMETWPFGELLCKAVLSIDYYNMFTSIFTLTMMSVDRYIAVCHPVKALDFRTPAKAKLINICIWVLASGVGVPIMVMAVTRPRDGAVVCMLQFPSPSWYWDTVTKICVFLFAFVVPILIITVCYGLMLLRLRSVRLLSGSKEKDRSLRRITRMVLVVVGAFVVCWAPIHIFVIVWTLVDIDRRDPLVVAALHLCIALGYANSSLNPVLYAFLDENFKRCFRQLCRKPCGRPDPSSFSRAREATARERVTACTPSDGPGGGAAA

CCKBR = biological target: T4, CCKBR (UniProt P32239 1-447)
T4 sequence (looked up): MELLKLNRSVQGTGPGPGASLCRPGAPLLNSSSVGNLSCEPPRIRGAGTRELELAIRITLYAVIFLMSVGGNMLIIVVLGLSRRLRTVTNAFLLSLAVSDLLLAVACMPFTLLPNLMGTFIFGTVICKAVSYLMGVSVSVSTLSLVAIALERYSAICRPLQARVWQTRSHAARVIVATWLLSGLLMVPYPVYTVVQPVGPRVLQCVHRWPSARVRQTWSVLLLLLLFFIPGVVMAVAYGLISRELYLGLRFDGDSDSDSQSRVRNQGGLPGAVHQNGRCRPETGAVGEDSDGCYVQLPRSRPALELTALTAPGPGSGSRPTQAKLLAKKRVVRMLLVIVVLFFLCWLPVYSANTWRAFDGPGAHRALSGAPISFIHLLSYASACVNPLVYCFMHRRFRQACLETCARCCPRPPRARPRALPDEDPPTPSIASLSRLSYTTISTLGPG

CHRM5 = biological target: T5, CHRM5 (UniProt P08912 1-532)
T5 sequence (looked up): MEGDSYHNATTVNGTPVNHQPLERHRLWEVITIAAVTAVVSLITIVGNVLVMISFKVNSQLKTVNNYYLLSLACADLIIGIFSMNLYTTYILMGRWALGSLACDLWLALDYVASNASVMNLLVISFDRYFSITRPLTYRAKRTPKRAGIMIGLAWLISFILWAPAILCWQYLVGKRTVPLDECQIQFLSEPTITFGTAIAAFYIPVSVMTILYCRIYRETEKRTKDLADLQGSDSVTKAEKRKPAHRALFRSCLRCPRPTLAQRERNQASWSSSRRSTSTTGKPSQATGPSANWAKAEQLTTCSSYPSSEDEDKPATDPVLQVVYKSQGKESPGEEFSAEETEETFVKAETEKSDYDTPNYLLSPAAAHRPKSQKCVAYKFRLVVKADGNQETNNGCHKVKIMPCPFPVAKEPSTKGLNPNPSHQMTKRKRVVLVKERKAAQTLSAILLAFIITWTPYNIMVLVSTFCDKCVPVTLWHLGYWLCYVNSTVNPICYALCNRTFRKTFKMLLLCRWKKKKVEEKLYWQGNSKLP

BDKRB1 = biological target: T6, BDKRB1 (UniProt P46663 1-353)
T6 sequence (looked up): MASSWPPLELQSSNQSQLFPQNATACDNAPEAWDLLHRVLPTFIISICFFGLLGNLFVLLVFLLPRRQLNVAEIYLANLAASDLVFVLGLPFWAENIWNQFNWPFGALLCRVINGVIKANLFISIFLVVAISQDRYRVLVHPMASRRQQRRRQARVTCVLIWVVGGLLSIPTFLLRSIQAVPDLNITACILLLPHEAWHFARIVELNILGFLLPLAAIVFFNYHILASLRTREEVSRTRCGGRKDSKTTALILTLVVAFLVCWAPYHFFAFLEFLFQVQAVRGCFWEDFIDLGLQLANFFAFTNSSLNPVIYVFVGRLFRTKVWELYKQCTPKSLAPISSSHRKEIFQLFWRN

HRH2 = HRH2 (UniProt P25021 1-359)
Sequence of HRH2 (P25021 whole entry): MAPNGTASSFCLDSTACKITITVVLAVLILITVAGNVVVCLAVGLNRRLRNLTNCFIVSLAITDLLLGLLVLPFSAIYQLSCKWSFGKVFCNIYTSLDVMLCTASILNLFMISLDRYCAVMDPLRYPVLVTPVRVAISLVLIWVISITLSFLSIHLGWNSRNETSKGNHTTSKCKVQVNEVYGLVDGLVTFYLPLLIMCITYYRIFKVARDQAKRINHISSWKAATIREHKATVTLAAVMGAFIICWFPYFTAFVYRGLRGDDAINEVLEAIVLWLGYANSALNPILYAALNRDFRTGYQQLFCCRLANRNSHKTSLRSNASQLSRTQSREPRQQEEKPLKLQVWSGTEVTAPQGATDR

QATVGDVNTDRPGLLDLK (also: synthesised on Rink amide resin, C-terminal amide not given here outright) [octadecaneuropeptide (ODN)]
% Activity, arrestin, antagonist mode, 2.5 uM (HTR1A): -6.2% | % Activity, arrestin, antagonist mode, 2.5 uM (EDNRB): -9.9% | % Activity, arrestin, antagonist mode, 2.5 uM (GIPR): -18.9% | % Activity, arrestin, antagonist mode, 2.5 uM (OPRD1): 10% | % Activity, arrestin, antagonist mode, 2.5 uM (CCKBR): -7.8% | % Activity, arrestin, antagonist mode, 2.5 uM (CHRM5): -1.5% | % Activity, arrestin, antagonist mode, 2.5 uM (BDKRB1): -5.7% | % Activity, arrestin, antagonist mode, 2.5 uM (HRH2): -13.3%
